Assay results taken from the supplement of paper PMC9170038.

Columns and labels:
Details in all cases: FMN input: 0 or 200 uM; Eterna round: R93 (includes R88 designs)
MS2 coat protein [1] = assay: apparent KD of MS2 coat protein, switch ON state; designed switch direction (-1 OFF switch, 1 ON switch): 1; higher = weaker reporter binding
In short: (§1)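 Designed RNA switches, transcribed on-chip from Illumina sequencing clusters, were titrated with SNAP-549-labelled MS2 coat protein from 0.7 or 1.5 nM to 3 µM in twofold steps. The solution was 100 mM Tris-HCl pH 7.5, 80 mM KCl, 4 mM MgCl2, with constant ligand or without it. Apparent KD is the median over each design's normalised cluster binding-curve fits.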

MS2 coat protein [2] = assay: apparent KD of MS2 coat protein, switch OFF state (with FMN for OFF switches, without FMN for ON switches); designed switch direction (-1 OFF switch, 1 ON switch): 1; higher = weaker reporter binding
In short: as §1

MS2 coat protein [3] = assay: apparent KD of MS2 coat protein, switch OFF state (with FMN for OFF switches, without FMN for ON switches); designed switch direction (-1 OFF switch, 1 ON switch): -1; higher = weaker reporter binding
In short: as §1

MS2 coat protein [4] = assay: apparent KD of MS2 coat protein, switch ON state; designed switch direction (-1 OFF switch, 1 ON switch): -1; higher = weaker reporter binding
In short: as §1

Sequence	apparent KD of MS2 coat protein (MS2 coat protein [1])	apparent KD of MS2 coat protein (MS2 coat protein [2])	apparent KD of MS2 coat protein (MS2 coat protein [3])	apparent KD of MS2 coat protein (MS2 coat protein [4])
AGAAAAGAAAGUAAGGAUAUGCAUAAUAAAACAUGAGGAUCACCCAUGUUAAAAAAAAGAUCAUGGUAGAAGGUACAAAAGAAAG [SS2 M 36]	17 nM	12.3 nM		
AGAAAACAUGAGGAUCACCCAUGUAGGAAUAUGGGAGGAUAUACAAAGACGAAAGUCAGAGUAGAAGGCCUAAAAA [salish99-SS1-086]	17.5 nM	92.3 nM		
GAAAAACAUGAGGAUCACCCAUGUGAAAAUAUGGGAGGAUAUACAAAGACGAAAGUCAAAGUAGAAGGCCUAAAAG [Mat - Same State 1 - Eli mod - D3]	23.5 nM	139 nM		
AAAAGACAUGAGGAUCACCCAUGUCAAAACGUAGGAGGAUAUGUCUUGAAAAAAGACUUGACAGAAGGCCUGUGUC [SS1 - 54]	15.1 nM	17 nM		
AAAAGACAUGAGGAUCACCCAUGUCUUCGGACAUGAGGAUAUGUACAGACUUCGGUCUGUACAGAAGGCAUAAAAA [SS1 - 1062]	21.1 nM	82.2 nM		
GAGGACAUAGUACAGGAUAUAUGAAUAGUUACAUGAGGAUCACCCAUGUGCAUUAAUAUGCGAACAUAGAAGGGUGGUAGUUAUC [Mat - Same state - Malcolm Mod - D128]	119 nM	64.4 nM		
GAAAAACAUGAGGAUCACCCAUGUGAAAAUAUGGGAGGAUAUACGAAGUCGAAAGUCAAAGUAGAAGGCCUAAAAG [Garnet 32]	43.6 nM	155 nM		
AACAAUCUAUCUGAGGAUAUGUGUCGAAAGACAUGAGGAUCACCCAUGUAAAAACAUGAAAAGAUACAGAAGGCAGAUAGAUUGA [SS2: 1156]	18.1 nM	29.3 nM		
GCAGGGCCGUACUAGGAUAUGGGUGUAAAGACAUGAGGAUCACCCAUGUGAUGGCAAAACAAAGCUCAGAAGGAGUCGCGGCCCA [Cemavebi]	20.7 nM	129 nM		
AAAAAAUAAAAAAAGGAUAUAAAUGGUACAACAUGAGGAUCACCCAUGUAGUACCAAAAAAUAAAAAAGAAGGAAAAAUAAAAAA [SS2: MS2 22]	20.8 nM	23.7 nM		
AAUAAUUAUAGCAAGGAUAUCGGUAUAAAGACAUGAGGAUCACCCAUGUAAUAUGGUUAAAUUUACGAGAAGGUGCAGGGUGAAA [JR_SS002_Sub009]	170 nM	142 nM		
AUGGUCAAGUGUGAGGAUAUCCAGGCUCCCACAUGAGGAUCACCCAUGUCUUAAAGGGCGUAAAGGGAGAAGGUACGAACGCCAC [Diatenat]	35.6 nM	46.8 nM		
CUGAGGAAGAGAGAGGAUAUCCAAAGGAAAACAUGAGGAUCACCCAUGUAAAAGGUAGGAAAUUGGGAGAAGGCUCAAGAGAGAG [salish99-ss2-068]	22.4 nM	34.3 nM		
AACAAUCUAUCUGAGGAUAUGUGUCGAAAGACAUGAGGAUCACCCAUGUGAAAACAUGGAAAAACACAGAAGGCAGAUAGAUUGA [SS2: 1150]	147 nM	202 nM		
AAAUAAAUGACUAAGGAUAUAUCAGAAAAAACAUGAGGAUCACCCAUGUAAUAAUAAAAAGGGUGAUAGAAGGUAGUCAACAAAC [74%, More Paria 4]	25.6 nM	118 nM		
CAGCGCUGUCGAGAGGAUAUGCGGUGAAGGACAUGAGGAUCACCCAUGUAAGCGAUAGUAUUACGGUAGAAGGCUCUACAGCUGC [Isdianbia]	41.8 nM	114 nM		
AAAAAGUCAGGAUAUAUAGGAAAAAUAAAAAAAAUAAAACUAUAGAAGGGACAUGAGGAUCACCCAUGUUAAAA [Ex 4 May 15]			22.9 nM	45.4 nM
